# According to patent publication US11856945B2, “Methods and systems for preparing and preserving a biological sample” (Washington University, priority 2017, dated 2024):
# Tests used:
# [1] = test system: streptozotocin-induced type 1 diabetic mice; test: Blood glucose in streptozotocin-induced type 1 diabetic mice; assay type: in vivo; conditions: 1 mg/kg intravenous
# Procedure: After establishing the chemical stability and structural integrity of ZIF-8 encapsulated insulin, the biological activity of ZIF-8 encapsulated insulin was assessed by measuring the effectiveness of ZIF-8 encapsulated insulin for treating hyperglycemia in streptozotocin-induced type 1 diabetic mice. […] The ZIF-8 encapsulated insulin was released by adding EDTA before injection. The blood glucose concentrations of mice in each group were then monitored for 12 h. […] Histological evaluation of the major organs of the mice at 5 days after intravenous injection of PBS or stabilized insulin. […] The ZIF-8 encapsulated insulin was released by adding EDTA before injection. Results are the mean±standard deviation (n=3). […] The partial loss of insulin bioactivity here could be attributed to the loss of structure integrity of insulin at elevated temperatures as confirmed by the aforementioned ELISA, CD and HPLC experiments.
# Mice were anesthetized with 2% isoflurane.
# [2] = Preservation of CA-125 spiked in serum/plasma dried on paper (ELISA); assay type: physicochemical
# Text: Further attention was given to blood (and components serum and plasma), the most common biospecimens in biological and clinical studies. Compared to urine, serum or plasma represents a more complex biological matrix due to the presence of large amount of various proteins such as albumin, globulins and fibrinogen. Before proceeding to assess the preservation of specific protein biomarker, it was confirmed that different types of proteins are extracted from the paper substrates containing dried serum with or without ZIF-8 encapsulation using sodium dodecyl sulfate-polyacrylamide gel electrophoresis (SDS-PAGE), indicating the potential of this technique in preserving multiple protein biomarkers simultaneously in serum or plasma (FIG. 16). […] Lane a, c and e are corresponding to eluate of volunteer #1, #2 and #3 serum without ZIF-8 encapsulation, respectively. Lane b, d and f are corresponding to eluate of volunteer #1, #2 and #3 serum with ZIF-8 encapsulation, respectively. CA-125, a serum biomarker for ovarian cancer, was used as the model protein and spiked into serum from healthy people. Considering extremely high concentration of serum proteins, the serum was first diluted (5-, 10- or 20-fold) before spiking CA-125 and adding ZIF-8 precursors to ensure ZIF-8 formation and more complete encapsulation. The CA-125 spiked serum samples, both with and without ZIF-8 encapsulation, were dried on paper and stored at 40° C. for 1 week. […] The poor preservation of CA-125 from 5- and 10-fold diluted serum was due to the incomplete ZIF-8 formation and encapsulation (FIG. 18). The encapsulation efficiency was calculated by subtracting the remaining CA-125 amount in the supernatant after encapsulation and centrifugation (concentration measured by ELISA) from the total CA-125 amount. […] Subsequently, CA-125 was spiked into three different matrices that represent typical blood-derived biospecimens (serum, heparin-anticoagulated plasma and EDTA-anticoagulated plasma from healthy people with 20-fold dilution), dried on paper substrates with and without ZIF-8 encapsulation, and subsequently stored at 25, 40, or 60° C. for different durations of time. CA-125 concentration in the eluate was quantified using sandwich ELISA. […] (FIG. 17D-F). FIGS. 17D-F show preservation efficacy of CA-125 spiked in serum, heparin-plasma or EDTA-plasma on paper card at 25, 40 or 60° C. for different durations.
# Sample preparation. NGAL-spiked artificial urine (50 μg/ml of NGAL, 25 μl) or patient urine (25 μl) was first mixed with 2-methylimidazole aqueous solution (12.5 μl) and then zinc acetate dihydrate aqueous solution (12.5 μl). The final concentrations of 2-methylimidazole after mixing were 320 mM, 160 mM, 80 mM and 40 mM. […]
# [3] = Preservation of CA-125 spiked in fresh blood under temperature fluctuations and shipping; assay type: physicochemical; conditions: plasma from spiked fresh blood, 20-fold diluted; 8 days 25/40° C. temperature cycles or 10 days shipping
# Procedure: The applicability of this technique was assessed to preserve blood samples drawn in resource-limited settings. Unlike serum and plasma, in some embodiments the presence of a large quantity of whole cells (red and white blood cells and platelets) in blood affects ZIF-8 encapsulation of target protein biomarkers. Considering that in some embodiments ZIF-8 also forms a thick layer on cell surfaces56 and lead to incomplete encapsulation or preservation of target protein biomarkers, it is important to remove blood cells through centrifugation before ZIF-8 encapsulation of protein biomarkers. Unfortunately, centrifuge is typically inaccessible in resource-limited settings considering that conventional systems are bulky, expensive and electrically-powered. A hand-powered centrifuge was implemented that was able to separate plasma from whole blood within 10 minutes for subsequent ZIF-8 encapsulation (FIG. 19A). In order to mimic fresh whole blood samples from ovarian cancer patients, four different concentrations of CA-125 within pathological-relevant range from 25 ng/ml-25 μg/ml were spiked into fresh blood from healthy volunteers.58-59 Then the plasma samples (heparin-anticoagulated) were separated from blood and diluted 20-fold for ZIF-8 encapsulation. To assess the preservation efficacy of this approach under unregulated conditions, two sets of experiments were devised. […]
# [4] = Release of insulin from ZIF-8 encapsulation by EDTA; assay type: physicochemical; conditions: 30 mM zinc acetate with 120 mM 2-methylimidazole
# Text: Elevated temperature is the primary detrimental condition during insulin transport and storage, an issue likely to be exacerbated by the increasing epidemic of diabetes in the developing countries, where refrigeration or “cold chain” facilities are not guaranteed. At high temperatures, insulin undergoes both physical (such as unfolding, non-native aggregation and fibrillation) and chemical degradations (such as deamidation, disulfide destruction and reshuffling). […] After 1 week, the ZIF-8 encapsulated insulin was released by adding ethylenediaminetetraacetic acid (EDTA) to dissociate the ZIF-8 crystals by breaking the coordination bonds between zinc and 2-methylimidazole (FIG. 25). The released insulin and unencapsulated insulin were then quantified by ELISA. The preservation efficacy (insulin recovery %) was calculated by comparing the recovered amount of insulin to the insulin amount prior to incubation. […] Compared to the optimal precursor concentrations, the low insulin recovery upon using 10 mM zinc acetate with 40 mM 2-methylimidazole is attributed to the incomplete encapsulation of insulin (FIG. 24). […] The insulin amount in the solution was measured by ELISA and compared with total insulin amount before encapsulation. […]
# [5] = Circular dichroism of insulin secondary structure; assay type: physicochemical
# Procedure: To further confirm that ZIF-8 encapsulation preserves the insulin structure, circular dichroism (CD) spectroscopy was employed to characterize the secondary structure of insulin with and without ZIF-8 encapsulation after 1 week incubation at 40° C. (FIG. 26D). […] Inset: Secondary structure content of the three types of insulin obtained from the CD spectra. […] FIG. 30 discloses the following: Left: CD spectra of pristine insulin prior to agitation, released insulin from ZIF-8 encapsulation after 48 h agitation at 200 rpm and insulin without ZIF-8 encapsulation after 48 h agitation at 200 rpm; Right: secondary structure content of the three types of insulin obtained from the CD spectra. […] FIG. 31 discloses the following: Left: CD spectra of pristine insulin prior to exposure to ethyl acetate, released insulin from ZIF-8 encapsulation after exposure to ethyl acetate for 6 h and insulin without ZIF-8 encapsulation after exposure to ethyl acetate for 6 h; and, right: secondary structure content of the three types of insulin obtained from the CD spectra. […]
# Circular dichroism (CD) spectroscopy. […] The insulin recovered from various treatments was quantified by BCA assay and diluted to 100 μg/mL in PBS. The secondary structures of insulin (α-helical content, β-sheet content) were analyzed using CDPro software from CD spectra.
# [6] = test system: STZ-induced type 1 diabetic mice; conditions: mouse, in vivo
# Procedure: STZ-induced male C57BL/6 (6-10 weeks) type 1 diabetic mice were purchased from Jackson Laboratory (USA). The blood glucose levels of mice were tested 1 day before administration by collecting blood (˜3 μL) from the tail vein and measuring using the Clarity GL2Plus glucose monitor (VWR, USA). The mice were randomly divided into four groups (3 mice each group) and intravenously injected via lateral tail vein with PBS solution, insulin stored at −20° C., ZIF-8 preserved insulin (dissociated by EDTA) and insulin alone stored at 40° C. for 1 week, respectively. The insulin dose for each mouse was 1 mg/kg (125 μg/mL, ˜200 μL). The blood glucose level was measured from tail vein blood samples (˜3 μL) of mice at different time points (at 10, 20, 40, and 60 min, and once per hour afterward for the first 12 h in the day of administration). Mice were anesthetized with 2% isoflurane. The mice treated with ZIF-8 preserved insulin and PBS were sacrificed after 5 days administration, and major organs were collected and sliced for haematoxylin and eosin (H&E) staining.
substance,measurement,setting,value
"Insulin at −20° C.: unencapsulated insulin solution stored frozen at −20° C., the gold standard control",time blood glucose maintained in the normoglycemic range,[1],4 h
same,blood glucose after return to hyperglycemic range,[1]; within 12 h,~550 mg/dL
cancer antigen 125 [CA-125],CA-125 preservation,"[2]; 20-fold diluted serum, with ZIF-8 encapsulation, 40° C., one week",~90%
same,CA-125 preservation,"[2]; serum, heparin-plasma and EDTA-plasma (20-fold dilution), 25° C., 4 weeks",~50%
same,CA-125 preservation,"[2]; serum, heparin-plasma and EDTA-plasma (20-fold dilution), 40° C., 4 weeks",~40%
same,CA-125 preservation,"[2]; serum, heparin-plasma and EDTA-plasma (20-fold dilution), 60° C., 4 weeks",~30%
same,CA-125 preservation,[3],50-60%
unencapsulated insulin: human recombinant insulin in solution without ZIF-8 encapsulation,release of insulin from ZIF-8 by EDTA,[4],~90%
same,secondary structure (CD spectrum),"[5]; 1 week incubation at 40° C., versus pristine insulin",an increase in the β-sheet content along with the decrease in the α-helical content
same,secondary structure (CD spectrum),[5]; after mechanical agitation (48 h at 200 rpm),from an overall rich helical to dominant β-sheet structure
same,effect on blood glucose concentrations,[1],only moderately decreased glucose concentrations
same,Mice weight Before,[6],22.0 ± 0.2 g
